Experimental findings from publication PMC10140304, “Flagellar brake protein YcgR interacts with motor proteins MotA and FliG to regulate the flagellar rotation speed and direction” (Frontiers in Microbiology, 2023) are described below.

To fix the notation:
T1: mYPet-YcgR-mCyPet (YcgR-biosensor), wild-type E. coli YcgR (E. coli MG1655), P76010
T1 chain: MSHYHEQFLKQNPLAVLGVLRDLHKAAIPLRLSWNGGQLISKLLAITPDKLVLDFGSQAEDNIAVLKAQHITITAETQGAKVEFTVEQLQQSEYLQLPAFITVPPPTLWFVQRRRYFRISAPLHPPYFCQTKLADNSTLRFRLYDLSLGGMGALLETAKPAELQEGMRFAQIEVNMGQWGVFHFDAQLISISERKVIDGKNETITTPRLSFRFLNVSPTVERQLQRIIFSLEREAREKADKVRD

T2: FliG (E. coli MG1655, UniProt P0ABZ1 1-331)
T2 construct: Flagellar motor switch (rotor) protein FliG, E. coli MG1655; also called individual FliG; rotor protein FliG; source: E. coli BL21 (DE3), purified following Hou et al., 2020
T2 sequence (looked up): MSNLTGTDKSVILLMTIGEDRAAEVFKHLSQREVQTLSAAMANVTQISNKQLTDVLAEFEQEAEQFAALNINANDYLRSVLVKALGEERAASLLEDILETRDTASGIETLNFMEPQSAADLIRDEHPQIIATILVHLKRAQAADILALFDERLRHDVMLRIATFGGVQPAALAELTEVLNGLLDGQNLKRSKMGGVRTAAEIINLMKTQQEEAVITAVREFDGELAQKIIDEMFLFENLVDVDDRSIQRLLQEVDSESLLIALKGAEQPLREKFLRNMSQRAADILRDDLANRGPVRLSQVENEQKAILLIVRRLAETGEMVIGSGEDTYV

B1: MotAc, cytoplasmic domain of MotA (residues 70-170 of MotA) (domain or fragment, E. coli MG1655, UniProt P09348 70-170, looked up)
chain: YTKAMYMDLLALLYRLMAKSRQMGMFSLERDIENPRESEIFASYPRILADSVMLDFIVDYLRLIISGHMNTFEIEALMDEEIETHESEAEVPANSLALVGD
notes: Flagellar stator protein MotA, E. coli MG1655, cytoplasmic domain, residues 70-170; source: E. coli BL21 (DE3), purified following Hou et al., 2020
B2: mYPet-YcgR(Q38A/D54A/N62A)-mCyPet mutant biosensor (natural protein, E. coli MG1655, UniProt P76010 1-244, looked up)
chain: T1 chain with Q38A, D54A, N62A
notes: Flagellar brake protein YcgR, E. coli MG1655, triple mutant Q38A/D54A/N62A, between YPet (A206K) and CyPet (A206K); Printed both as QDN/AAA and QND/AAA; also called QDN/AAA; QND/AAA biosensor; source: E. coli BL21 (DE3), purified following Hou et al., 2020; not shown: mYPet (YPet A206K), N-terminal, kept; mCyPet (CyPet A206K), C-terminal, kept
B3: mYPet-YcgR(D54A)-mCyPet mutant biosensor (natural protein, E. coli MG1655, UniProt P76010 1-244, looked up)
chain: T1 chain with D54A
notes: Flagellar brake protein YcgR, E. coli MG1655, mutant D54A, between YPet (A206K) and CyPet (A206K); also called YcgR biosensor mutant D54A; source: E. coli BL21 (DE3), purified following Hou et al., 2020; not shown: mYPet (YPet A206K), N-terminal, kept; mCyPet (CyPet A206K), C-terminal, kept
B4: mYPet-YcgR-mCyPet (YcgR-biosensor), wild-type E. coli YcgR (natural protein, E. coli MG1655, UniProt P76010 1-244, looked up)
chain: T1 chain
notes: Flagellar brake protein YcgR, E. coli MG1655, cloned between YPet (A206K) and CyPet (A206K) in an engineered pET15b; YFP and CFP report FRET within one chain; also called YcgR-FRET; FRET-based YcgR biosensor; source: E. coli BL21 (DE3), purified following Hou et al., 2020; not shown: mYPet (YPet A206K), N-terminal, kept; mCyPet (CyPet A206K), C-terminal, kept

Changes are numbered by the printed parent chain. Names may count otherwise.

The target of assay [1] is B2. Nature of the assay: FRET or BRET; in vitro, intramolecular FRET of 1.5 uM YcgR biosensor oversaturated with excess c-di-GMP (2 mM), titrated with gradient concentrations of motor protein; 25 C, SEC buffer; FRET/CFP ratio fitted to a logistic equation. The note with it: both partners purified. On the technique in general: BRET reads energy transfer from a luciferase to a nearby fluorophore.

Assay [2] deals with T1, mYPet-YcgR-mCyPet (YcgR-biosensor), …. Described as above. The conditions noted are these: remark: other sources report otherwise.
In assay [3] the target is B2. Put plainly: FRET or BRET; in vitro, intramolecular FRET of 1.5 uM YcgR biosensor (mYPet-YcgR-mCyPet) titrated with 0-500 uM motor protein, without c-di-GMP; 25 C, SEC buffer (20 mM HEPES pH 7.5, 150 mM NaCl, 10% glycerol); FRET/CFP ratio fitted to a logistic equation. The conditions noted are these: both partners purified.
Assay [4] concerns the target B3. The description is as above. The conditions noted are these: both partners purified.
The target of assay [5] is T1, mYPet-YcgR-mCyPet (YcgR-biosensor), …. Described as above. The conditions noted are these: remark: other sources report otherwise.
Assay [6] deals with T2, FliG. Nature of the assay: FRET or BRET; in vitro, intramolecular FRET of 1.5 uM YcgR biosensor oversaturated with excess c-di-GMP (2 mM), titrated with gradient concentrations of motor protein; 25 C, SEC buffer; FRET/CFP ratio fitted to a logistic equation. The note with it: both partners purified.
Assay [7] concerns the target T2, FliG. Nature of the assay: FRET or BRET; in vitro, intramolecular FRET of 1.5 uM YcgR biosensor (mYPet-YcgR-mCyPet) titrated with 0-500 uM motor protein, without c-di-GMP; 25 C, SEC buffer (20 mM HEPES pH 7.5, 150 mM NaCl, 10% glycerol); FRET/CFP ratio fitted to a logistic equation. The conditions noted are these: both partners purified.

For orientation: Kd means a measure of binding affinity in units of concentration. For B1, the Kd in assay [1] was 46.1 ± 2.2 µM; in assay [2] it was 35.9 µM; in assay [3], 151 ± 10.2 µM; in assay [4], 114 ± 11.3 µM; in assay [5], 123 µM.

Regarding B2, the figures for the Kd in assay [6] and in assay [7] were 235 ± 35.4 µM and 139 ± 15.6 µM, respectively.

In the case of B3, the Kd in assay [6] is 213 µM; in assay [7], 141 ± 9.8 µM.

Take B4: the Kd in assay [6] came out at 107 µM; in assay [7], 143 µM.
